According to patent US20260193372A1 (Hoffmann-La Roche, published 2026):

How the values were obtained:
[1] = molecular target: mixture of 5 nM human C3, 5 nM human C3a and 2.5 nM human C3b coated on the plate; experiment: counterscreening ELISA, plate coated with a mixture of human C3, C3a and C3b, Fab supernatant
[2] = molecular target: mixture of 10 nM human Factor B, 5 nM human Ba and 10 nM human Bb coated on the plate; experiment: counterscreening ELISA, plate coated with a mixture of human Factor B, Ba and Bb, Fab supernatant
[3] = molecular target: T1, stabilized human C3bBb complex comprising the Bb subunit of the FB protein of SEQ ID NO: 3 (triple mutant), … (human, UniProt P01024 23-667; P00751 260-764; P01024 749-1663, limits assumed, biotinylated with EZ-Link HPDP-Biotin (Cys)); experiment: ELISA, biotinylated C3bBb on streptavidin plate, Fab supernatant, anti kappa/anti T7 HRP
T1 construct: also called C3bBb (D279G/350N/M458I); C3bBb triple mutant-HPDP
T1 sequence (P01024 23-667 limits assumed, stated change not applied, chain 1 of 3, one chain of several): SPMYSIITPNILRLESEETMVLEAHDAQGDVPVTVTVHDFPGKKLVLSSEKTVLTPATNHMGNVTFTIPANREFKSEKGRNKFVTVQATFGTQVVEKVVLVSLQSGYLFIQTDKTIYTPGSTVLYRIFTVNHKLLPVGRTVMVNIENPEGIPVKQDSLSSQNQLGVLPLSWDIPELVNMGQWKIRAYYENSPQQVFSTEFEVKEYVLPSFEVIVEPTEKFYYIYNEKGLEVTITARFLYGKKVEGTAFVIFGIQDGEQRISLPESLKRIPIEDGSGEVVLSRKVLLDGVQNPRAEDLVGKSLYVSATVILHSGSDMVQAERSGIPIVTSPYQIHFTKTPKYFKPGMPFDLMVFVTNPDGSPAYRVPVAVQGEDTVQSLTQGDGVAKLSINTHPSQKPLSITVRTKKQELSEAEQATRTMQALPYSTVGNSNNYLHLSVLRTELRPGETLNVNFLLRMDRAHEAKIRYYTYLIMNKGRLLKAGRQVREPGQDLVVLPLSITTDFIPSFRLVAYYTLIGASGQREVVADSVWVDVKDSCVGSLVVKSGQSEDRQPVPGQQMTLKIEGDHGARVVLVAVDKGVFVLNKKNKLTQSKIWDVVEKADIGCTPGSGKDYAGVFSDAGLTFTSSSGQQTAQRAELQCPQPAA
T1 sequence (P01024 749-1663 limits assumed, stated change not applied, chain 3 of 3, one chain of several): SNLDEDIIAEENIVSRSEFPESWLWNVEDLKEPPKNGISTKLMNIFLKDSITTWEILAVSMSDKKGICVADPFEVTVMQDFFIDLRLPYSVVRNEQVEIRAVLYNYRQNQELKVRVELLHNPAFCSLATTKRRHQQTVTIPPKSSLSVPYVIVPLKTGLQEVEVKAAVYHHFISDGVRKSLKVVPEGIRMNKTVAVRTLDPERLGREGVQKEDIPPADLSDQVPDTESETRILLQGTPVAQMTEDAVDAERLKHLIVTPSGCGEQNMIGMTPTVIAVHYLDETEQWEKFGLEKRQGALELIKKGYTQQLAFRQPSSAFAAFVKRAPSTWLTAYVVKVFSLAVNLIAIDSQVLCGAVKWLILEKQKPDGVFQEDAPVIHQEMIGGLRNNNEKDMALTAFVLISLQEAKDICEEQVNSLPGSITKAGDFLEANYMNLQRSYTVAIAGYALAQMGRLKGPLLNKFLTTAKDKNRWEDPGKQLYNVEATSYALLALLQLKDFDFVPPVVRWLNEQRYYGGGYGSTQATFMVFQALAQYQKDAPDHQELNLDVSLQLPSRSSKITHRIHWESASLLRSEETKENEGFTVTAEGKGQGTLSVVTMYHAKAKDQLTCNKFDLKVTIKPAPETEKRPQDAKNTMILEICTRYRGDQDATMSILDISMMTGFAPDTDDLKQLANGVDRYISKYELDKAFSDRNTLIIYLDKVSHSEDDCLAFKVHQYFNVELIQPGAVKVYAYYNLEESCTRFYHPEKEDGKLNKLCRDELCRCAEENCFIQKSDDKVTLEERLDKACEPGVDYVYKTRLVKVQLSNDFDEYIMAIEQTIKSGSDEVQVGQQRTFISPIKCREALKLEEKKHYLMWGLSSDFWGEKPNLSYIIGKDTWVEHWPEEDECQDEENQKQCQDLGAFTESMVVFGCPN
Method: (§1) Method: 20 μl of a mixture of 500 ng/ml stabilized human C3bBb-Cys-HPDP-Biotin (inhouse preparation), 1:3000 mouse anti human kappa HRP (Southern Biotech 9230-05) and 1:2000 Mouse IgG anti T7 Tag HRP (Novagen 69048-3) was added to a Microcoat Streptavidine coated 384 well Microplate (Microcoat 11974998001). 25 μl sample was added to the plate and incubated at room temperature for 1 hour. After incubation plates were washed with 90 μl/well washing buffer using a Biotek EL406 Washer and 30 μl TMB (3,3′,5,5′-3,3,5,5-Tetramethylbenzidine, Roche 11835033001) was added. After a 5 Minute incubation at room temperature the optical density (OD) was measured at 370 nm using an En Vision Multimode Plate Reader (Perkin Elmer).

[4] = molecular target: T2, stabilized human C3bBb complex comprising the Bb subunit of the FB protein of SEQ ID NO: 2 (single mutant), … (human, UniProt P01024 23-667; P00751 260-764; P01024 749-1663, limits assumed, biotinylated with EZ-Link HPDP-Biotin (Cys)); experiment: as above
T2 construct: also called C3bBb (D279G)
T2 sequence (P01024 23-667 limits assumed, stated change not applied, chain 1 of 3): as the sequence (P01024 23-667 limits assumed, stated change not applied, chain 1 of 3, one chain of several) above
T2 sequence (P00751 other isoform, or with tags, fused parts or gaps mutant limits assumed, chain 2 of 3): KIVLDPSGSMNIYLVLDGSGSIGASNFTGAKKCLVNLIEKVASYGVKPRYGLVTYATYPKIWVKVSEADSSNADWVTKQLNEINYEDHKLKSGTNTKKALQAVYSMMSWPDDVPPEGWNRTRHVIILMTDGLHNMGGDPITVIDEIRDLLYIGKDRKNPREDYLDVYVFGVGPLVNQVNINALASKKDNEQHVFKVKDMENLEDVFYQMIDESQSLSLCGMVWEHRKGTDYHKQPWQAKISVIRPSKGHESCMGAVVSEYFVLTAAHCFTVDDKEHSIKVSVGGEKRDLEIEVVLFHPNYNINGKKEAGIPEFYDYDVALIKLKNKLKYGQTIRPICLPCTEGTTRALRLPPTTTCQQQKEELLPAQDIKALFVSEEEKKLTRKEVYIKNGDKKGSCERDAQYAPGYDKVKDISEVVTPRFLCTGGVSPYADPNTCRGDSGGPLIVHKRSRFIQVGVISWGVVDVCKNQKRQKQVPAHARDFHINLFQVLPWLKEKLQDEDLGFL
T2 sequence (P01024 749-1663 limits assumed, stated change not applied, chain 3 of 3): as the sequence (P01024 749-1663 limits assumed, stated change not applied, chain 3 of 3, one chain of several) above
Method: as §1

[5] = molecular target: T3, plasma purified C3b (Complement Technology), biotinylated at cysteine 1010 with Maleimide-PEG3-biotin (human, UniProt P01024 23-667; P01024 749-1663, limits assumed, cysteine 1010 biotinylated (Maleimide-PEG3-biotin)); experiment: BLI, dissociation of C3bBb, Ni2+ buffer, against wild type C3bBb formed in presence of magnesium ions
T3 construct: Loaded on streptavidin BLI sensors; also called Complement C3 beta chain (C3b); C3 fragment
T3 sequence (P01024 23-667 limits assumed, chain 1 of 2): as the sequence (P01024 23-667 limits assumed, stated change not applied, chain 1 of 3, one chain of several) above
T3 sequence (P01024 749-1663 limits assumed, chain 2 of 2): as the sequence (P01024 749-1663 limits assumed, stated change not applied, chain 3 of 3, one chain of several) above

[6] = molecular target: T3, plasma purified C3b (Complement …); experiment: BLI, biotinylated C3b on streptavidin sensor, FB with factor D, Mg2+ buffer, dissociation of C3bBb, double exponential fit
Method: To analyze stability of the C3bBb complexes having the different Bb subunits, C3b cysteine 1010 was biotinylated by incubating plasma purified C3b (Complement Technology) overnight at 4° C. in presence of 5 molar excess Maleimide-PEG3-biotin (Thermo Fisher Scientific) followed by purification on a Zeba spin column 40K (Thermo Fisher Scientific). This material was used to load streptavidin functionalized BLI sensors (SA sensors; Fortebio) in an Octet RED 384 device (Fortebio) at high density (5 nm BLI signal). C3bBb was assembled by exposing the C3b loaded sensors to different recombinant factor B variants (i.e. wild type SEQ ID NO: 1; D279G variant of SEQ ID NO: 2; D279G K350N M458I triple variant of SEQ ID NO: 3) in presence of 54 nM plasma purified factor D (Complement Technology) in HBS-T (Mg) buffer (150 mM NaCl, 10 mM HEPES, 1 mM MgCl2, 0.005% Tween20. pH 7.4) at 22° C. […]
After subtraction of the signal recorded from parallel reference sensors omitting the C3b loading step and subtraction of a control sensor omitting factor B and factor D, data of the dissociation phase was fitted to the double exponential ((A*exp(((−1)*B)*x)))+(C*exp(((−1)*D)*x)) using XLfit (IDBS software), allowing for heterogeneity in the assembled convertase population. […]

[7] = molecular target: T3, plasma purified C3b (Complement …); experiment: BLI, biotinylated C3b on streptavidin sensor, FB with factor D, Ni2+ buffer, dissociation of C3bBb, single exponential fit
From the text: Correction of the BLI trace was identical to the experiment in presence of magnesium. Different from the Mg2+ containing C3bBb complexes, only one species was detected during dissociation and a single exponential decay (A*exp(((−1)*B)*x)) was used for analysis.

Binder	OD (370 nm) [1] [OD]	OD (370 nm) [2] [OD]	OD (370 nm) [3] [OD]	OD (370 nm) [4] [OD]	fold increase in C3bBb half-life [5] [fold]	prevalence of main species [6] [%]	t ½ [6] [h]	prevalence of main species [7] [%]	t ½ [7] [h]
C3bBb.P048.127 (Fab, V domains shown, Tested as soluble Fab in E. coli supernatant with a T7 tag at the C-terminus of the Fab CH1 domain; detected with anti human kappa) VH: GQLVESGGGLVKPGGSLRLSCKASGFYWGPGAMSWVRQAPGKGLEWVGSISPKGGSTEYNTKVYGRFTISRDNNQDTLYLQMNSLRAEDTAVYYCARDIGFFDTWGQGTLVTVSS VL: HQMTQSPSSLSASVGDRVTITCDGEWDISNYLAWYQQKPGKAPKLLIFDAKYRAPEVPSRFSGSGSGRDFTLTISSLQPEDFATYYCQQYNRMYFTFGQGTKVEIK	-0.006	0.002	0.187	2.42					
C3bBb.P048.241 (Fab, V domains shown, Tested as soluble Fab in E. coli supernatant with a T7 tag at the C-terminus of the Fab CH1 domain; detected with anti human kappa) VH: GQLVESGGGLVKPGGSLRLSCKASGFYWGPGAMSWVRQAPGKGLEWVGSISPKGGSAWYNNNFTGRFTISRDNNQDTLYLQMNSLRAEDTAVYYCARDIGFFDTWGQGTLVTVSS VL: INQMTQSPSSLSASVGDRVTITCQAKWVISNYLAWYQQKPGKAPKLLIFDAKYRAPEVPSRFSGSGSDGTFTLTISSLQPEDFATYYCQQYDWWPYTFGQGTKVEIK	0.17	0.037	2.38	2.57					
C3bBb.P055.015 (Fab, V domains shown, Tested as soluble Fab in E. coli supernatant with a T7 tag at the C-terminus of the Fab CH1 domain; detected with anti human kappa) VH: GQLVESGGGLVKPGGSLRLSCKASGFYWGPGAMSWVRQAPGKGLEWVGSISPKGGSAEYASKVYGRFTISRDNNQDTLYLQMNSLRAEDTAVYYCARDIGFFDTWGQGTLVTVSS VL: DYQMTQSPSSLSASVGDRVTITCEAHSQISNYLAWYQQKPGKAPKLLIFDAKYRAPEVPSRFSGSGSGPDFTLTISSLQPEDFATYYCQQYNDFWLTFGQGTKVEIK	-0.014	0.004	-0.01	0.86					

Further lines, results first:

OD (370 nm) [1] [OD]	OD (370 nm) [2] [OD]	OD (370 nm) [3] [OD]	OD (370 nm) [4] [OD]	fold increase in C3bBb half-life [5] [fold]	prevalence of main species [6] [%]	t ½ [6] [h]	prevalence of main species [7] [%]	t ½ [7] [h]	Binder
-0.005	-0.01	2.9	0.023						C3bBb.P045.072 (Fab, V domains shown, Tested as soluble Fab in E. coli supernatant with a T7 tag at the C-terminus of the Fab CH1 domain; detected with anti human kappa) VH: KLQLVESGGGLVKPGGSLRLSCAASGRRFGVQDMSWVRQAPGKGLEWVGSISPKGDHKYLNTKFIGRFTISRDNSKNTLYLQMNSLRAEDTAVYYCARDWGYFDQWGQGTLVTVSS VL: AIQMTQSPSSLSASVGDRVTITCHGSYWLSSEVAWYQQKPGKAPKLLIYDGNGIIGNVPSRFSGSGSHEDYTLTISSLQPEDFATYYCQQYRYHPYTFGHGTKVEIK
				135	93	1.98	100	11.3	recombinant human FB with D279G, K350N and M458I with His Tag and Precission site (enzyme, Cleaved by factor D in the assay; the Bb subunit stays on C3b; also called FB (D279G, K350N and M458I); triple mutated Bb) KIVLDPSGSMNIYLVLDGSGSIGASNFTGAKKCLVNLIEKVASYGVKPRYGLVTYATYPKIWVKVSEADSSNADWVTKQLNEINYEDHKLNSGTNTKKALQAVYSMMSWPDDVPPEGWNRTRHVIILMTDGLHNMGGDPITVIDEIRDLLYIGKDRKNPREDYLDVYVFGVGPLVNQVNINALASKKDNEQHVFKVKDIENLEDVFYQMIDESQSLSLCGMVWEHRKGTDYHKQPWQAKISVIRPSKGHESCMGAVVSEYFVLTAAHCFTVDDKEHSIKVSVGGEKRDLEIEVVLFHPNYNINGKKEAGIPEFYDYDVALIKLKNKLKYGQTIRPICLPCTEGTTRALRLPPTTTCQQQKEELLPAQDIKALFVSEEEKKLTRKEVYIKNGDKKGSCERDAQYAPGYDKVKDISEVVTPRFLCTGGVSPYADPNTCRGDSGGPLIVHKRSRFIQVGVISWGVVDVCKNQKRQKQVPAHARDFHINLFQVLPWLKEKLQDEDLGFL
0.001	0.006	1.9	0.004						C3bBb.P048.061 (Fab, V domains shown, Tested as soluble Fab in E. coli supernatant with a T7 tag at the C-terminus of the Fab CH1 domain; detected with anti human kappa) VH: GQLVESGGGLVKPGGSLRLSCKASGFYWGPGAMSWVRQAPGKGLEWVGSISPKGGSTDINPKIGGRFTISRDNNQDTLYLQMNSLRAEDTAVYYCARDIGFFDTWGQGTLVTVSS VL: AIQMTQSPSSLSASVGDRVTITCQGSWLISNYLAWYQQKPGKAPKLLIFDAKYRAPEVPSRFSGSGSGTDFTLTISSLQPEDFATYYCQQYGGRLLTFGQGTKVEIK
